A word on the stoichiometry N: it is the number of molecules, sites or subunits per partner or assembly.

The results in this text go back to paper PMC3791466, “Structure of a helicase–helicase loader complex reveals insights into the mechanism of bacterial primosome assembly” (Nature Communications, 2013).

Assay [1] concerns the target T1, Bacillus stearothermophilus helicase DnaB (B. stearothermophilus, UniProt Q9X4C9 1-454).
T1 construct: replicative DNA helicase DnaB of Bacillus stearothermophilus; N-terminal domain, linker and C-terminal RecA-fold domain; both the NTD and the CTD are in the structure; also called BstDnaB; hexameric helicase ring
T1 sequence: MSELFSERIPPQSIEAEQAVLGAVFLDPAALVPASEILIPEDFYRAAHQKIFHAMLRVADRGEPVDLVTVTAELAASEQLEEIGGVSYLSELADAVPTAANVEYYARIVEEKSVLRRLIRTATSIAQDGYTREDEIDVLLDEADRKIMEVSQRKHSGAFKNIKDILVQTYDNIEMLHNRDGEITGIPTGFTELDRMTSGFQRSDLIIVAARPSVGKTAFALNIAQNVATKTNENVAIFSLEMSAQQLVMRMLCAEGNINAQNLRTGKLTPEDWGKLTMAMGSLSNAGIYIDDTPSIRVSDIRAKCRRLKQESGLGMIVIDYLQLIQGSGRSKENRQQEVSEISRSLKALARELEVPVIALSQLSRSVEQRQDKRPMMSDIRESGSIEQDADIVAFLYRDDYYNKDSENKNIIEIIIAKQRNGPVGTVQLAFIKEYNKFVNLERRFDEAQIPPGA
Nature of the assay: crystal structure; 570-kDa complex of BstDnaB, BsuDnaI and HBD of BstDnaG, molecular replacement, 7.5 Å; proteins in the crystals confirmed by tryptic digestion and mass spectrometry. Particulars: both partners purified.

Assay [2] addresses T1, Bacillus stearothermophilus helicase …. Nature of the assay: crystal structure; another crystal form obtained under different conditions, content shown by molecular replacement. As to conditions: both partners purified.
Assay [3] addresses T2, Bacillus subtilis helicase loader protein DnaI (B. subtilis), P06567.
T2 chain: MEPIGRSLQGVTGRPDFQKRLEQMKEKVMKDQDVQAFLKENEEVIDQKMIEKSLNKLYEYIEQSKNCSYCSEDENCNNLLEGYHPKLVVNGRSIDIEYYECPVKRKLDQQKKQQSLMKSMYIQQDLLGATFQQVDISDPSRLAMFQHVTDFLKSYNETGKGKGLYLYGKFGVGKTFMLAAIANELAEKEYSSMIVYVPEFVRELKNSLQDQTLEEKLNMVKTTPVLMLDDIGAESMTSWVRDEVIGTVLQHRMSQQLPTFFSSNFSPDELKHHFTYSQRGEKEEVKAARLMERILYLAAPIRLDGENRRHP
Nature of the assay: SEC-MALS; gel filtration and multiple-angle light scattering of BsuDnaI alone at 10 mg/ml. As to conditions: remark: other sources report otherwise.

For assay [4], the target named is T2, Bacillus subtilis helicase loader …. Nature of the assay: crystal structure; 570-kDa complex of BstDnaB, BsuDnaI and HBD of BstDnaG, molecular replacement, 7.5 Å; proteins in the crystals confirmed by tryptic digestion and mass spectrometry. As to conditions: remark: other sources report otherwise.

B1: helicase-binding domain (HBD) of Bacillus stearothermophilus primase DnaG (domain or fragment, B. stearothermophilus)
chain: KLLPAFQNAERLLLAHMMRSRDVALVVQERIGGRFNIEEHRALAAYIYAFYEEGHEADPGALISRIPGELQPLASDVSLLLIADDVSEQELEDYIRHVLNRPKWLMLKVKEQEKTEAERRKDFLTAARIAKEMIEMKKMLSSS
notes: also called HBD of BstDnaG; HBD of primase DnaG
With B1, the “stoichiometry N” value in assay [1] came out at 3 HBDs per helicase hexamer; in assay [2], 3 HBDs per DnaB hexamer.

B2: Bacillus subtilis helicase loader protein DnaI (natural protein, B. subtilis)
chain: MEPIGRSLQGVTGRPDFQKRLEQMKEKVMKDQDVQAFLKENEEVIDQKMIEKSLNKLYEYIEQSKNCSYCSEDENCNNLLEGYHPKLVVNGRSIDIEYYECPVKRKLDQQKKQQSLMKSMYIQQDLLGATFQQVDISDPSRLAMFQHVTDFLKSYNETGKGKGLYLYGKFGVGKTFMLAAIANELAEKEYSSMIVYVPEFVRELKNSLQDQTLEEKLNMVKTTPVLMLDDIGAESMTSWVRDEVIGTVLQHRMSQQLPTFFSSNFSPDELKHHFTYSQRGEKEEVKAARLMERILYLAAPIRLDGENRRHP
notes: primosomal helicase loader DnaI of Bacillus subtilis 168, cloned by PCR from genomic DNA into NcoI-XhoI of pET21d(+); the reverse primer has no stop codon before XhoI, so a C-terminal His tag of the vector is surmised; No cleavage of the tag is described; also called BsuDnaI
Take B2: the results for the “stoichiometry N” value in assay [1], in assay [3] and in assay [4] were 3 loader dimers per helicase hexamer, 2 and 6, respectively. This molecule came in with a percent monomer at 10 mg/ml in assay [3] of 93%.
